Source: patent US8524227B2, “Anti-IL-TIF antibodies” (ZymoGenetics, Inc., priority 2002, dated 2013)

Assays:
[1] = target: T1, IL-TIF (Homo sapiens, UniProt Q9GZX6); experiment: Effect of zcytor16 on IL-TIF-induced acanthosis; assay type: in vivo, mice; details: for Average Acanthosis: day 8, score 0-3
T1 construct: made in house; host or cells: BHK cells
T1 sequence (Q9GZX6 34-179): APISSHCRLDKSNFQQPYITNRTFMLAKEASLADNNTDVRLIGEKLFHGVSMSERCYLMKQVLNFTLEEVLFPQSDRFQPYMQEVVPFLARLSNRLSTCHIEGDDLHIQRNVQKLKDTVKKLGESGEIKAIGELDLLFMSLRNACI
Protocol: Mice (female, C3H/HEJ, 8 weeks old; Jackson Labs, Bar Harbor, Me.) were divided into eight groups of eight animals each. IL-TIF was administered by constant infusion via mini-osmotic pumps, as described in example 32a. Alzet mini-osmotic pumps (model 2001; Alza corporation Palo Alto, Calif.) were loaded under sterile conditions with IL-TIF protein (A#601F, 0.22 mL) diluted in phosphate buffered saline (pH 7.0) to a concentration within the pump of 0.22 mg/mL for group 1-2 mice, 0.45 mg/mL for group 3-4 mice, 0.9 mg/mL for group 5-6 mice, or 0 mg/mL (diluent only) for group 7-8 mice. These pumps are designed to deliver their contents at a rate of 0.5 μl per hour over a period of 14 days. Using this nominal rate of infusion, dose levels were calculated to be […] and 0 μg/day for groups 7-8. For each pair of groups at a given dose level of IL-TIF, one of the groups was injected three times (days 1, 3, and 5) with 0.1 mg of human zcytor16 Fc protein (described herein) by the interperitoneal route. The other group was injected in the same fashion with vehicle (PBS).
On day 8 of the study, mice were euthanized and an approximately 1 cm square sample of skin surrounding the pump area was collected from each mouse. The skin was fixed in 10% neutral buffered formalin. Formalin fixed samples of skin were embedded in paraffin, routinely processed, sectioned at 5 um and stained with hematoxylin and eosin. The tissues were microscopically examined in blinded fashion by an ACVP board certified veterinary pathologist. This study was scored in a different manner than the previous example. The number of layers in the epidermis, from stratum basalis to stratum granulosum, was determined Based on the results, the sections were scored as follows: O-normal (2-3 layers), 1-mild thickening (3-4 layers), 2-moderate thickening (4-6 layers) and 3-severe thickening (>6 layers).

[2] = target: T2, IL-TIF (Homo sapiens, UniProt Q9GZX6); experiment: Inhibition of IL-TIF-induced proliferation of BaF3/CRF2-4/zcytor11 cells by soluble receptors; assay type: cell-based; details: 100 pg/ml IL-TIF
T2 sequence (Q9GZX6 13-179 limits assumed): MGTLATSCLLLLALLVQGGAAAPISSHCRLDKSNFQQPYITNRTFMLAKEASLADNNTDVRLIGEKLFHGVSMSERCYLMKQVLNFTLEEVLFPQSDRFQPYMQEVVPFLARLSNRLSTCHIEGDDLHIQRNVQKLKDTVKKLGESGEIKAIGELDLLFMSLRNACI
Protocol: BaF3/CRF2-4/zcytor11 cells described herein were spun down and washed in PBS 2 times to ensure the removal of the mIL-3, and then spun a third time and re-suspended in the complete media (RPMI 1640, 10% FBS, 1% GlutaMAX, 1% Sodium Pyruvate), but without mIL-3 (hereinafter referred to as “mIL-3 free media”). Cells were then counted in a hemocytometer. Cells were plated in a 96-well format at 5000 cells per well in a volume of 100 μl per well using the mIL-3 free media.
IL-TIF protein (SEQ ID NO:3) was diluted to 200 pg/ml in mIL-3 free media. Zcytor16-Fc4 fusion protein (described herein) was diluted to 1 μg/ml in the mIL-3 free/IL-TIF media on the top row of the plate, and then diluted serially 1:2 down the remaining 7 rows on the 96-well plate, leaving a volume of 100 μl in each well. This was then added to the 100 μl of cells, for a final IL-TIF concentration of 100 pg/ml in all wells, and final Zcytor16-Fc4 concentrations of approximately […], 0.016, and 0.008 μg/ml in a total assay volume of 200 μl. CRF2-4/zcytor11-Fc4 was diluted to 8 μg/ml in the mIL-3 free/IL-TIF media on the top row of the plate, and then diluted serially 1:2 down the remaining 7 rows on the 96-well plate, leaving a volume of 100 μl in each well. This was then added to the 100 μl of cells, for a final IL-TIF concentration of 100 pg/ml in all wells, and final CRF2-4/zcytor11-Fc4 concentrations of approximately […], 0.25, 0.125 and 0.063 μg/ml, in a total assay volume of 200 The assay plates were incubated at 37° C., 5% CO2 for 4 days at which time Alamar Blue (Accumed, Chicago, Ill.) was added at […]. Plates were again incubated at 37° C., 5% CO2 for 16 hours. Alamar Blue gives a fluourometric readout based on number of live cells, and is thus a direct measurement of cell proliferation in comparison to a negative control. Plates were read on the Wallac Victor 2 1420 Multilabel Counter (Wallac, Turku, Finland) at wavelengths 530 (Excitation) and 590 (Emmssion). […] IL-TIF alone stimulated the cells 13-fold over background.

Average Acanthosis ([1]; pump 2.5 μg IL-TIF/day + 100 μg zcytor16 (3 injections)): 0.8 | Average Acanthosis ([1]; pump 5 μg IL-TIF/day + 100 μg zcytor16 (3 injections)): 0.6 | Average Acanthosis ([1]; pump 10 μg IL-TIF/day + 100 μg zcytor16 (3 injections)): 1.9 | Average Acanthosis ([1]; pump Vehicle + 100 μg zcytor16 (3 injections)): 0.0 | concentrations completely inhibiting proliferation [2]: 0.025 to 1 µg/mL | concentrations partially inhibiting proliferation, lower end [2]: ≥ 8 ng/mL | inhibition of the proliferative effect of IL-TIF [2]: strong dose-dependant inhibition
B1: zcytor16-Fc4: soluble receptor for IL-TIF, zcytor16 fused to Fc4; IL-TIF antagonist (protein)
chain: TQSTHESLKPQRVQFQSRNFHNILQWQPGRALTGNSSVYFVQYKIYGQRQWKNKEDCWGTQELSCDLTSETSDIQEPYYGRVRAASAGSYSEWSMTPRFTPWWETKIDPPVMNITQVNGSLLVILHAPNLPYRYQKEKNVSIEDYYELLYRVFIINNSLEKEQKVYEGAHRAVEIEALTPHSSYCVVAEIYQPMLDRRSQRSEERCVEIPEPRSSDKTHTCPPCPAPEAEGAPSVFLFPPKPKDTLMISRTPEVTCVVVDVSHEDPEVKFNWYVDGVEVHNAKTKPREEQYNSTYRVVSVLTVLHQDWLNGKEYKCKVSNKALPSSIEKTISKAKGQPREPQVYTLPPSRDELTKNQVSLTCLVKGFYPSDIAVEWESNGQPENNYKTTPPVLDSDGSFFLYSKLTVDKSRWQQGNVFSCSVMHEALHNHYTQKSLSLSPGK
effect on epidermal thickening ([1]; 100 μg zcytor16 (3 injections), mice treated with 5 μg IL-TIF/day): decreased the amount of epidermal thickening
